# Data: PMC10881741, “Structural modifications toward improved lead-203/lead-212 peptide-based image-guided alpha-particle radiopharmaceutical therapies for neuroendocrine tumors” (European Journal of Nuclear Medicine and Molecular Imaging, 2023)
# Like-named read-outs stand apart in the source and are kept apart here.
# Assay: In vivo biodistribution of ^203Pb-labeled peptides
# Parameters: species or system mice
# Details: female, athymic nu/nu, mouse, total radioactivity; for tissue uptake at 1 h / tissue uptake at 3 h / tissue uptake at 24 h / tissue uptake at 6 h: intravenous; for tissue to tissue ratio at 1 h / tissue to tissue ratio at 3 h / tissue to tissue ratio at 24 h: iv
# Procedure: AR42J cells (5.0 × 10^6 cells/animal) were implanted subcutaneously on the left shoulder of female athymic nu/nu mice. […] Extra groups of mice were co-administered 37 kBq of ^203Pb-PSC-PEG2-TOC with DL-lysine (400 mg/kg) to determine the effect of amino acid on renal uptake of the radiopharmaceutical. Mice (n=3 per time point) were euthanized at 1, 3, and 24 h post-administration, and tumors and organs/tissues of interest were excised and weighed. The radioactivities of the samples were measured using the gamma counter.
compound,measurement,setting,value
"C[C@@H](O)[C@@H]1NC(=O)[C@H](CCCCN)NC(=O)[C@@H](Cc2c[nH]c3ccccc23)NC(=O)[C@H](Cc2ccc(O)cc2)NC(=O)[C@@H](NC(=O)[C@@H](Cc2ccccc2)NC(=O)CCOCCOCCNC(=O)CN2CCN(CC(=O)O)CCN(CC(N)=O)CCN(CC(=O)O)CC2)CSSC[C@@H](C(=O)N[C@H](CO)[C@@H](C)O)NC1=O [[^203Pb]Pb-PSC-PEG2-TOC, metal not drawn]",tissue uptake at 1 h,"lung, 37 kBq, 1 h post-administration, read-out: Lung",3.58 ± 1.64 %ID/g
same,tissue uptake at 3 h,"lung, 37 kBq, 3 h (No Lys), Table S4 study, read-out: Lung",4.61 ± 3.75 %ID/g
same,tissue uptake at 3 h,"lung, 37 kBq, 3 h post-administration, read-out: Lung",0.38 ± 0.07 %ID/g
same,tissue uptake at 24 h,"lung, 37 kBq, 24 h post-administration, read-out: Lung",1.46 ± 0.4 %ID/g
same,tissue uptake at 1 h,"lung, 1 h, DL-lysine co-administered, read-out: Lung",4.48 ± 4.47 %ID/g
same,tissue uptake at 3 h,"lung, 3 h (Blocking): 10 nmol unlabeled PSC-PEG2-TOC co-administered, read-out: Lung",0.26 ± 0.03 %ID/g
same,tissue uptake at 3 h,"lung, 3 h, DL-lysine co-administered, read-out: Lung",4.76 ± 3.19 %ID/g
same,tissue uptake at 6 h,"lung, DL-lysine co-administered, read-out: Lung",5.6 ± 1.27 %ID/g
same,tissue uptake at 24 h,"lung, 24 h, DL-lysine co-administered, read-out: Lung",1.11 ± 0.74 %ID/g
same,tissue uptake at 1 h,"muscle, 37 kBq, 1 h post-administration, read-out: Muscle",0.29 ± 0.27 %ID/g
same,tissue uptake at 3 h,"muscle, 37 kBq, 3 h (No Lys), Table S4 study, read-out: Muscle",0.17 ± 0.1 %ID/g
same,tissue uptake at 3 h,"muscle, 37 kBq, 3 h post-administration, read-out: Muscle",0.03 ± 0.01 %ID/g
same,tissue uptake at 24 h,"muscle, 37 kBq, 24 h post-administration, read-out: Muscle",0.02 ± 0.01 %ID/g
same,tissue uptake at 1 h,"muscle, 1 h, DL-lysine co-administered, read-out: Muscle",0.48 ± 0.26 %ID/g
same,tissue uptake at 3 h,"muscle, 3 h (Blocking): 10 nmol unlabeled PSC-PEG2-TOC co-administered, read-out: Muscle",0.06 ± 0.03 %ID/g
same,tissue uptake at 3 h,"muscle, 3 h, DL-lysine co-administered, read-out: Muscle",0.03 ± 0.01 %ID/g
same,tissue uptake at 6 h,"muscle, DL-lysine co-administered, read-out: Muscle",0.02 ± 0.02 %ID/g
same,tissue uptake at 24 h,"muscle, 24 h, DL-lysine co-administered, read-out: Muscle",0.01 ± 0.01 %ID/g
same,tissue uptake at 3 h,"pancreas, 37 kBq, 3 h (No Lys), Table S4 study, read-out: Pancreas",2.29 ± 1.63 %ID/g
same,tissue uptake at 1 h,"pancreas, 1 h, DL-lysine co-administered, read-out: Pancreas",5.04 ± 1.33 %ID/g
same,tissue uptake at 3 h,"pancreas, 3 h (Blocking): 10 nmol unlabeled PSC-PEG2-TOC co-administered, read-out: Pancreas",0.22 ± 0.04 %ID/g
same,tissue uptake at 3 h,"pancreas, 3 h, DL-lysine co-administered, read-out: Pancreas",2.1 ± 0.68 %ID/g
same,tissue uptake at 6 h,"pancreas, DL-lysine co-administered, read-out: Pancreas",0.75 ± 0.16 %ID/g
same,tissue uptake at 24 h,"pancreas, 24 h, DL-lysine co-administered, read-out: Pancreas",0.33 ± 0.08 %ID/g
same,tissue uptake at 1 h,"small intestine, 37 kBq, 1 h post-administration, read-out: Small intestine",1.34 ± 0.35 %ID/g
same,tissue uptake at 3 h,"small intestine, 37 kBq, 3 h (No Lys), Table S4 study, read-out: Small intestine",0.6 ± 0.11 %ID/g
same,tissue uptake at 3 h,"small intestine, 37 kBq, 3 h post-administration, read-out: Small intestine",1.85 ± 0.22 %ID/g
same,tissue uptake at 24 h,"small intestine, 37 kBq, 24 h post-administration, read-out: Small intestine",0.17 ± 0.01 %ID/g
same,tissue uptake at 1 h,"small intestine, 1 h, DL-lysine co-administered, read-out: Small intestine",1.9 ± 0.74 %ID/g
same,tissue uptake at 3 h,"small intestine, 3 h (Blocking): 10 nmol unlabeled PSC-PEG2-TOC co-administered, read-out: Small intestine",0.81 ± 0.71 %ID/g
same,tissue uptake at 3 h,"small intestine, 3 h, DL-lysine co-administered, read-out: Small intestine",2.37 ± 0.78 %ID/g
same,tissue uptake at 6 h,"small intestine, DL-lysine co-administered, read-out: Small intestine",0.94 ± 0.32 %ID/g
same,tissue uptake at 24 h,"small intestine, 24 h, DL-lysine co-administered, read-out: Small intestine",0.15 ± 0.02 %ID/g
same,tissue uptake at 1 h,"spleen, 37 kBq, 1 h post-administration, read-out: Spleen",1.21 ± 0.17 %ID/g
same,tissue uptake at 3 h,"spleen, 37 kBq, 3 h (No Lys), Table S4 study, read-out: Spleen",0.97 ± 0.47 %ID/g
same,tissue uptake at 3 h,"spleen, 37 kBq, 3 h post-administration, read-out: Spleen",0.54 ± 0.29 %ID/g
same,tissue uptake at 24 h,"spleen, 37 kBq, 24 h post-administration, read-out: Spleen",0.28 ± 0.07 %ID/g
same,tissue uptake at 1 h,"spleen, 1 h, DL-lysine co-administered, read-out: Spleen",1.04 ± 0.4 %ID/g
same,tissue uptake at 3 h,"spleen, 3 h (Blocking): 10 nmol unlabeled PSC-PEG2-TOC co-administered, read-out: Spleen",0.14 ± 0.07 %ID/g
same,tissue uptake at 3 h,"spleen, 3 h, DL-lysine co-administered, read-out: Spleen",0.81 ± 0.3 %ID/g
same,tissue uptake at 6 h,"spleen, DL-lysine co-administered, read-out: Spleen",0.73 ± 0.17 %ID/g
same,tissue uptake at 24 h,"spleen, 24 h, DL-lysine co-administered, read-out: Spleen",0.41 ± 0.28 %ID/g
same,tissue uptake at 3 h,"stomach, 37 kBq, 3 h (No Lys), Table S4 study, read-out: Stomach",0.95 ± 0.13 %ID/g
same,tissue uptake at 1 h,"stomach, 1 h, DL-lysine co-administered, read-out: Stomach",1.46 ± 0.32 %ID/g
same,tissue uptake at 3 h,"stomach, 3 h (Blocking): 10 nmol unlabeled PSC-PEG2-TOC co-administered, read-out: Stomach",0.36 ± 0.15 %ID/g
same,tissue uptake at 3 h,"stomach, 3 h, DL-lysine co-administered, read-out: Stomach",2.36 ± 0.44 %ID/g
same,tissue uptake at 6 h,"stomach, DL-lysine co-administered, read-out: Stomach",0.78 ± 0.2 %ID/g
same,tissue uptake at 24 h,"stomach, 24 h, DL-lysine co-administered, read-out: Stomach",0.3 ± 0.12 %ID/g
same,tissue uptake at 1 h,"tumor, 37 kBq, 1 h post-administration, read-out: Tumor",28.2 ± 8.63 %ID/g
same,tissue uptake at 3 h,"tumor, 37 kBq, 3 h (No Lys), Table S4 study, read-out: Tumor",19.8 ± 1.61 %ID/g
same,tissue uptake at 3 h,"tumor, 37 kBq, 3 h post-administration, read-out: Tumor",22.8 ± 2.8 %ID/g
same,tissue uptake at 24 h,"tumor, 37 kBq, 24 h post-administration, read-out: Tumor",12.2 ± 3.81 %ID/g
same,tissue uptake at 1 h,"tumor, 1 h, DL-lysine co-administered, read-out: Tumor",24.4 ± 1.85 %ID/g
same,tissue uptake at 3 h,"tumor, 3 h (Blocking): 10 nmol unlabeled PSC-PEG2-TOC co-administered, read-out: Tumor",2.41 ± 0.46 %ID/g
same,tissue uptake at 3 h,"tumor, 3 h, DL-lysine co-administered, read-out: Tumor",22.9 ± 1.09 %ID/g
same,tissue uptake at 6 h,"tumor, DL-lysine co-administered, read-out: Tumor",18.9 ± 1.86 %ID/g
same,tissue uptake at 24 h,"tumor, 24 h, DL-lysine co-administered, read-out: Tumor",7.44 ± 0.41 %ID/g
same,tissue to tissue ratio at 1 h,"tumor/blood, 37 kBq, 1 h post-administration, read-out: Tumor/blood ratio",78.3
same,tissue to tissue ratio at 3 h,"tumor/blood, 37 kBq, 3 h post-administration, read-out: Tumor/blood ratio",456
same,tissue to tissue ratio at 24 h,"tumor/blood, 37 kBq, 24 h post-administration, read-out: Tumor/blood ratio",610
same,tissue to tissue ratio at 1 h,"tumor/kidneys, 37 kBq, 1 h post-administration, read-out: Tumor/kidneys ratio",1.37
same,tissue to tissue ratio at 3 h,"tumor/kidneys, 37 kBq, 3 h post-administration, read-out: Tumor/kidneys ratio",1.44
same,tissue to tissue ratio at 24 h,"tumor/kidneys, 37 kBq, 24 h post-administration, read-out: Tumor/kidneys ratio",8.36
same,tissue to tissue ratio at 1 h,"tumor/liver, 37 kBq, 1 h post-administration, read-out: Tumor/liver ratio",78.3
same,tissue to tissue ratio at 3 h,"tumor/liver, 37 kBq, 3 h post-administration, read-out: Tumor/liver ratio",99.1
same,tissue to tissue ratio at 24 h,"tumor/liver, 37 kBq, 24 h post-administration, read-out: Tumor/liver ratio",153
same,tissue to tissue ratio at 1 h,"tumor/lung, 37 kBq, 1 h post-administration, read-out: Tumor/lung ratio",7.87
same,tissue to tissue ratio at 3 h,"tumor/lung, 37 kBq, 3 h post-administration, read-out: Tumor/lung ratio",60
same,tissue to tissue ratio at 24 h,"tumor/lung, 37 kBq, 24 h post-administration, read-out: Tumor/lung ratio",8.36
same,tissue to tissue ratio at 1 h,"tumor/muscle, 37 kBq, 1 h post-administration, read-out: Tumor/muscle ratio",97.2
same,tissue to tissue ratio at 3 h,"tumor/muscle, 37 kBq, 3 h post-administration, read-out: Tumor/muscle ratio",760
same,tissue to tissue ratio at 24 h,"tumor/muscle, 37 kBq, 24 h post-administration, read-out: Tumor/muscle ratio",610
